1 molecule from article PMC2289750 (The Journal of Cell Biology, 1992) can be followed below.

The target of the assay is T1, zyxin (chicken, UniProt Q04584 1-542, 125I (radioiodinated using Iodogen)).
T1 sequence (looked up): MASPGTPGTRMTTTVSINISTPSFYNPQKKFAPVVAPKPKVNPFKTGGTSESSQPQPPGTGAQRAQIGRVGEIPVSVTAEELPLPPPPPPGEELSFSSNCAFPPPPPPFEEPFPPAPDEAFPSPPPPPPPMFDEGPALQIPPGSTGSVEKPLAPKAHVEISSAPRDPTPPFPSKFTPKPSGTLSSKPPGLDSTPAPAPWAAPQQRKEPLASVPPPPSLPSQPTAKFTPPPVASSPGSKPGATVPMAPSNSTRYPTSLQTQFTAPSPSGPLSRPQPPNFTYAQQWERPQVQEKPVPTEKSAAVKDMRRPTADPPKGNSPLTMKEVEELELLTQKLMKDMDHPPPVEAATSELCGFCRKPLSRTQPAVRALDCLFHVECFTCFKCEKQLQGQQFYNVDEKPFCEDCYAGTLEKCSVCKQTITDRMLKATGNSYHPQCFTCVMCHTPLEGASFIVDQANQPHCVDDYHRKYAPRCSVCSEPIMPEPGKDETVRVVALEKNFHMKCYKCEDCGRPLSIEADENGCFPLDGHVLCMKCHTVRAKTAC
The assay is described as follows: far-Western, overlay or dot blot.

B1: chicken Cysteine-Rich Protein (cCRP) (natural protein)
chain: MPNWGGGKKCGVCQKAVYFAEEVQCEGSSFHKSCFLCMVCKKNLDSTTVAVHGDEIYCKSCYGKKYGPKGYGYGMGAGTLSTDKGESLGIKYEEGQSHRPTNPNASRMAQKVGGSDGCPRCGQAVYAAEKVIGAGKSWHKSCFRCAKCGKSLESTTLADKDGEIYCKGCYAKNFGPKGFGFGQGAGALIHSQ
In the case of B1, the binding result was “binds”.
